Results on one molecule are retold here after US20220380455A1.

Assay [1] addresses cynomolgus (cyno) MS4A6A (cynomolgus). Kind of assay: flow cytometry, hybridoma supernatant, HEK293 transfected with cyno MS4A6A over parental HEK293; Screen 1.
Assay [2] shares this target. Kind of assay: flow cytometry, hybridoma supernatant, HEK293 transfected with cyno MS4A6A over parental HEK293; Screen 2.

cynomolgus (cyno) MS4A6A (cynomolgus), sequence (Q9H2W1 other isoform, or with tags, fused parts or gaps): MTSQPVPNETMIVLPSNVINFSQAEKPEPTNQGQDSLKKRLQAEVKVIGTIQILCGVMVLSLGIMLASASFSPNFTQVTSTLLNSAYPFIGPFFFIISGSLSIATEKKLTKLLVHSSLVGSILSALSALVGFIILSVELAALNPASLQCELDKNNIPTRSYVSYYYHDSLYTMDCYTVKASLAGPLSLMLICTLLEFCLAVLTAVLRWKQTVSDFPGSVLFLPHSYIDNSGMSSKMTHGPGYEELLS

B1: 6A-20 (antibody, V domains shown)
VH: EVQLQQSGPELVKPGASVKMSCKASGYTFTDYFMKWVKQSHGKSLEWIGDINPKNGDTFYNQKFKGKATLTVDKSSSTAYMQLNSLTSEDSAVYYCARPGYFDVWGAGTTVTVSS
VL: DIVMTQAAPSVPVTPGESVSISCRSSKSLLHSDGNTYLYWFLQRPGQSPQLLIYRMSNLAPGVPDRFSGSGSGTAFTLRISRVEAEDVGVYYCMQHLEFPFIFGAGTKLELK
B1: the ratio of APC MFI on MS4A6A+/HEK parental cells in assay [1] worked out at 2.7; in assay [2] it was 0.2.
